# T1: murine RAGE-strep tag fusion protein (mouse, UniProt Q62151 23-343)
# T1 construct: also called mRAGE-strep; mRAGE-SA
# T1 chain: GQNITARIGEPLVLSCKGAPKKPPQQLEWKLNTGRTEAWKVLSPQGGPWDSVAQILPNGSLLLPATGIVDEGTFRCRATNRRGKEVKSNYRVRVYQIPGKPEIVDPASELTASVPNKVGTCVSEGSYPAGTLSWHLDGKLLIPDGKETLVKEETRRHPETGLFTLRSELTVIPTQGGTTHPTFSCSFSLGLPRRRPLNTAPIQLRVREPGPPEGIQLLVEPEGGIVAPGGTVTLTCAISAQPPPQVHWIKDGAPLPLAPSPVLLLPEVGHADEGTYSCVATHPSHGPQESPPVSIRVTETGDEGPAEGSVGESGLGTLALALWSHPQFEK
# T2: baboon RAGE (baboon (Papio cyanocephalus), UniProt Q15109 23-404 (human entry))
# T2 construct: On transfected 293 cells or endogenous in baboon lung sections; also called 293-baboon RAGE; RAGE in baboon lung
# T2 chain: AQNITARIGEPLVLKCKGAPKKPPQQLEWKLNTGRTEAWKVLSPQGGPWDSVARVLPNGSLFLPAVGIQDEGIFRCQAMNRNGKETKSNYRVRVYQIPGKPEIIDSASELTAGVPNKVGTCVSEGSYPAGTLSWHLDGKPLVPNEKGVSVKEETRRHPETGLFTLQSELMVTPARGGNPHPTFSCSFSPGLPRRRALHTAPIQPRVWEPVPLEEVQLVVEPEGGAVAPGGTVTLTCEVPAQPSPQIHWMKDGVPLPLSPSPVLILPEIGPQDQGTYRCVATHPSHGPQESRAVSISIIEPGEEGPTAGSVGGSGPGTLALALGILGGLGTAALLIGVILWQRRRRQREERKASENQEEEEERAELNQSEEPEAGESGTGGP
# T3: cynomolgus monkey RAGE (cynomolgus monkey (Macaca fascicularis), UniProt Q15109 23-404 (human entry))
# T3 construct: On transfected 293 cells or endogenous in monkey lung sections; also called 293-cyno monkey RAGE; RAGE in monkey lung
# T3 chain: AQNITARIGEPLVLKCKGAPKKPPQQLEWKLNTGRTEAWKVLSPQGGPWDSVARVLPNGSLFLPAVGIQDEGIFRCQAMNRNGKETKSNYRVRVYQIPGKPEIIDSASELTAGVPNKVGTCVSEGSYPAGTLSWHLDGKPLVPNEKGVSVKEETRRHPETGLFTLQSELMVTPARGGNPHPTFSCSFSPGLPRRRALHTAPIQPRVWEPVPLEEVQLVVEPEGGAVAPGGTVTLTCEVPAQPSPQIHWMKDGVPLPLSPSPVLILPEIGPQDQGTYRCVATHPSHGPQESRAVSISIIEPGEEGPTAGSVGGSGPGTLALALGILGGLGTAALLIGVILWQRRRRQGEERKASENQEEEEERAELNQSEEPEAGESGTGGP
# T4: murine RAGE, full length (mouse, UniProt Q62151 23-402)
# T4 construct: Expressed on 293 cells; also called mRAGE; 293-murine RAGE
# T4 chain: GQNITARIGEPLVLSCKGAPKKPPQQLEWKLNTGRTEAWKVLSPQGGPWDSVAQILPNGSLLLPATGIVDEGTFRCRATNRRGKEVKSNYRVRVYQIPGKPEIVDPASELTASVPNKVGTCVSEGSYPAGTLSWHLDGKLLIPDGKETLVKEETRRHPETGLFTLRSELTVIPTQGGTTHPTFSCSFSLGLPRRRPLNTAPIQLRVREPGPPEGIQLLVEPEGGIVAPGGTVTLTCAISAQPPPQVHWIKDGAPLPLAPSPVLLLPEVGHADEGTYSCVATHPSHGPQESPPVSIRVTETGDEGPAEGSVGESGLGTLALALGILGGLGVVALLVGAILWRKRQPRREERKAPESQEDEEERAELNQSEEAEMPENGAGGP
# B1: XT-M4-V10 (antibody, V domains shown)
# VH: EVQLVESGGGLVQPGGSLRLSCAASGFTFNNYWMTWVRQAPGKGLEWVASIDNSGDNTYYPDSVKDRFTISRDNAKNSLYLQMNSLRAEDTAVYYCARGGDITTGFDYWGQGTLVTVSS
# VL: DIQMTQSPSSLSASVGDRVTITCRASQDVGIYVNWFQQKPGKAPKRLIYRATNLADGVPSRFSGSGSGTDFTLTISSLQPEDFATYYCLEFDEHPLTFGGGTKVEIK
# B2: XT-H1 (antibody, mouse IgG1, V domains shown)
# VH: QVQLKESGPGLVAPSQSLSITCTISGFSITSYGVHWVRQPPGKGLEWLVVIWSDGRTTYNSTLKSRLSISKDNSKSQVFLKMNSLQTDDTAMYYCVRHGGYFPYAMDYWGQGTSVTVSS
# VL: DIQMTQSPSSLSTSLGGKVTITCKASQDINKFIAWYQHTPGKGPRLFIYYTSTLQPGIPSRFSGNGSGRDYSFSISNLEPEDIATYYCLQYDNMYTFGGGTKLEIK
# notes: also called 1hRAGEP3/6; murine anti-huRAGE monoclonal antibody XT-H1
# B3: humanized XT-M4 hVH-V2.0 / hVL-V2.10 (antibody, human IgG1, V domains shown)
# VH: EVQLVESGGGLVQPGGSLRLSCAASGFTFNNYWMTWVRQAPGKGLEWVASIDNSGDNTYYPDSVKDRFTISRDNAKNSLYLQMNSLRAEDTAVYYCARGGDITTGFDYWGQGTLVTVSS
# VL: DIQMTQSPSSLSASVGDRVTITCRASQDVGIYVNWFQQKPGKAPKRLIYRATNLADGVPSRFSGSGSGTDFTLTISSLQPEDFATYYCLEFDEHPLTFGGGTKVEIK
# Legend:
# [1] = molecular target: T1, murine RAGE-strep tag fusion protein; assay: BIACORE capture, SA-Mu RAGE over captured antibody, 1:1 Langmuir global fit, FC4
# Protocol: (§1) The assays were performed by coating anti-human Fc antibodies onto a CM5 BIA chip with 5000 RU (pH 5.0, 7 min.) in flow cells 1-4. Each antibody was captured by flowing at 2.0 μg/ml over the anti-Fc antibodies in flow cells 2-4 (flow cell 1 was used as a reference).
# [2] = molecular target: T5, soluble human streptavidin-tagged RAGE (human, UniProt Q15109 23-344); assay: BIACORE capture, hRAGE-SA over captured antibody, steady state affinity, FC4
# T5 construct: also called hRAGE-SA; human RAGE-strep
# Protocol: as §1
# [3] = molecular target: T1, murine RAGE-strep tag fusion protein; assay: BIACORE capture, SA-Mu RAGE over captured antibody, 1:1 Langmuir global fit, FC2
# Protocol: as §1
# [4] = molecular target: T5, soluble human streptavidin-tagged RAGE; assay: BIACORE capture, hRAGE-SA over captured antibody, 1:1 Langmuir global fit, FC4
# Protocol: as §1
# [5] = molecular target: T1, murine RAGE-strep tag fusion protein; assay: BIACORE capture, SA-Mu RAGE over captured antibody, 1:1 Langmuir global fit, FC3
# Protocol: as §1
# [6] = molecular target: T1, murine RAGE-strep tag fusion protein; assay: BIACORE capture, SA-Mu RAGE over captured antibody, 1:1 Langmuir global fit, row Average
# Protocol: as §1
# [7] = molecular target: T5, soluble human streptavidin-tagged RAGE; assay: BIACORE capture, hRAGE-SA over captured antibody, 1:1 Langmuir global fit, row Average
# Protocol: as §1
# [8] = molecular target: T5, soluble human streptavidin-tagged RAGE; assay: BIACORE capture, hRAGE-SA over captured antibody, steady state affinity, FC2 (cell circled on the sheet)
# Protocol: as §1
# [9] = molecular target: T5, soluble human streptavidin-tagged RAGE; assay: BIACORE capture, hRAGE-SA over captured antibody, 1:1 Langmuir global fit, FC2
# Protocol: as §1
# [10] = molecular target: T5, soluble human streptavidin-tagged RAGE; assay: BIACORE capture, hRAGE-SA over captured antibody, 1:1 Langmuir global fit, FC3
# Protocol: as §1
# [11] = molecular target: T5, soluble human streptavidin-tagged RAGE; assay: BIACORE capture, hRAGE-SA over captured antibody, steady state affinity, row Average
# Protocol: as §1
# [12] = molecular target: T5, soluble human streptavidin-tagged RAGE; assay: BIACORE capture, hRAGE-SA over captured antibody, steady state affinity, FC3
# Protocol: as §1
# [13] = molecular target: T6, human RAGE, full length (human, UniProt Q15109 23-404); assay: IHC, CHO cells expressing hRAGE, 1 µg/ml
# T6 construct: Expressed on 293 or CHO cells, or endogenous in human lung sections; also called hRAGE; cell-surface hRAGE
# Protocol: (§2) Immunohistochemistry for RAGE lung tissues isolated from baboon, cynomolgus monkey, rabbit or Chinese Hamster Ovary cells over-expressing human RAGE or control CHO cells were performed using standard techniques. RAGE antibodies and rat IgG2b isotype control or mouse isotype control were used at […]. […] Following detection with HRP and Alexa Fluor 594, Alexa Fluor 488 or anti-biotin conjugated with FITC, sections were also stained with 4′-6-Diamidino-2-phenylindole (DAPI).
# (§3) CHO cells stable transfected with an expression vector that expresses DNA encoding hRAGE is used as a positive control.
# [14] = molecular target: T2, baboon RAGE; assay: IHC, septic baboon lung, 1 µg/ml
# Protocol: as §2, §3
# [15] = molecular target: T1, murine RAGE-strep tag fusion protein; assay: ELISA, mRAGE-strep
# [16] = molecular target: T3, cynomolgus monkey RAGE; assay: IHC, normal monkey lung, 5 µg/ml
# Protocol: as §2, §3
# [17] = molecular target: T4, murine RAGE, full length; assay: FACS, 293 cells infected with murine RAGE adenovirus
# Protocol: Human 293 cells were infected with the human and murine RAGE adenovirus. Infected cells were suspended in PBS containing 1% BSA at a density of 4×10⁴ cells/ml. Cells were incubated with 100 ul of sample (diluted immune sera, hybridoma supernatants or purified antibodies) for 30 min at 4° C. After washing, cells were incubated with PE-labeled goat, anti-mouse, IgG, F(ab′)₂ (DAKO Corporation GlostrupDenmark) for 30 min at 4° C. in the dark. Cell-associated fluorescence signals were measured by a FACScan flow cytofluorometer (Becton Dickinson) using 5000 cells per treatment. Propidium iodide was used to identify dead cells, which were excluded from the analysis.
# [18] = molecular target: T7, human RAGE-Fc fusion protein (human, UniProt Q15109 23-344); assay: ELISA, coated hRAGE-Fc
# T7 construct: also called hRAGE-Fc; huRAGE-Fc; not shown: Fc domain of human IgG
# Protocol: Antibodies were purified from hybridoma supernatants using standard procedures. Purified antibodies were evaluated for binding to soluble forms of RAGE with the use of ELISA. […] After washing and blocking with PBS containing 1% BSA and 0.05% Tween-20, 100 ul of sample (samples were in several forms: diluted immune serum, hybridoma supernatants, or purified antibodies, as indicated) was added and incubated for 1 hour at room temperature. The plates were washed with PBS, pH 7.2 and bound anti-RAGE antibodies were detected with the use of peroxidase-conjugated goat, anti-mouse IgG (H+L) (IgG) (Pierce, Rockford, Ill.) followed by incubation with the substrate TMB (BioFX Laboratories Owings Mills, Md. Laboratories). Absorbance values were determined at 450 nm in a spectrophotometer. The concentrations of monoclonal antibodies were determined with the use of peroxidase-labeled goat, anti-mouse IgG (Fcγ) (Pierce Rockford, Ill.) and a standard curve was generated by a purified, isotype-matched mouse IgG.
# [19] = molecular target: T7, human RAGE-Fc fusion protein; assay: competition ELISA on coated hRAGE-Fc; competitor 12.5 ng/ml biotinylated rat XT-M4; lower end of the printed range 0.3-0.4; second listing of this pair (r31, beside r26: 0.95)
# Protocol: (§4) ELISA plates were coated overnight with 1 ug/ml human RAGE-Fc. […] Briefly, plates were coated overnight with 1 ug/ml human RAGE-Fc.
# [20] = molecular target: T7, human RAGE-Fc fusion protein; assay: competition ELISA on coated hRAGE-Fc; competitor 12.5 ng/ml biotinylated rat XT-M4
# Protocol: as §4
# [21] = molecular target: T7, human RAGE-Fc fusion protein; assay: competition ELISA on coated hRAGE-Fc; competitor 12.5 ng/ml biotinylated rat XT-M4; upper end of the printed range 0.3-0.4; second listing of this pair (r31, beside r26: 0.95)
# Protocol: as §4
binder,measurement,setting,value
B1,Kd,[1],3 nM
same,koff,[1],0.0078 s⁻¹
same,kon,[1],2.6e+06 M⁻¹ s⁻¹
same,Kd,[2],26 nM
same,Kd,[3],3 nM
same,koff,[3],0.0078 s⁻¹
same,kon,[3],2.6e+06 M⁻¹ s⁻¹
same,Kd,[4],20.3 nM
same,koff,[4],0.0704 s⁻¹
same,kon,[4],3.47e+06 M⁻¹ s⁻¹
same,Kd,[5],2.9 nM
same,koff,[5],0.0076 s⁻¹
same,kon,[5],2.6e+06 M⁻¹ s⁻¹
same,Kd,[6],3 nM
same,koff,[6],0.0077 s⁻¹
same,kon,[6],2.6e+06 M⁻¹ s⁻¹
same,Kd,[7],23.4 nM
same,koff,[7],0.0457 s⁻¹
same,kon,[7],2.3e+06 M⁻¹ s⁻¹
same,Kd,[8],25 nM
same,Kd,[9],31.8 nM
same,koff,[9],0.00972 s⁻¹
same,kon,[9],306000 M⁻¹ s⁻¹
same,Kd,[10],18.2 nM
same,koff,[10],0.0569 s⁻¹
same,kon,[10],3.13e+06 M⁻¹ s⁻¹
same,Kd,[11],25 nM
same,Kd,[12],24 nM
B2,binding result,[13],binds
same,binding result,[14],binds
same,binding result,[15],binds
same,binding result,[16],binds
same,binding result,[17],binds
same,binding result,[18],binds
B3,IC50,[19],0.3 to 0.4 µg/mL
same,IC50,[20],0.95 µg/mL
same,IC50,[21],0.3 to 0.4 µg/mL

# From patent US20070286858A1 (Pfizer, published 2007)
